Data as given in patent US9845340B2, “Peptides that specifically bind HGF receptor (cMet) and uses thereof” (Dyax Corp., priority 2003, dated 2017).

Tests used:
[1] = biological target: cMet-Fc fusion protein (Homo sapiens, UniProt P08581); assay: Protein phage ELISA: peptide-displaying phage binding to soluble cMet-Fc versus TRAIL-Fc; conditions: phage isolate; cMet-Fc vs. TRAIL-Fc
Outline: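 Phage displaying selected peptides were incubated 2 h at room temperature on wells coated with 0.5 μg/mL cMet-Fc, with TRAIL-Fc coating as the unrelated-Fc specificity control.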

[2] = biological target: T1, 3T3 cells that over-express human cMet (Homo sapiens, UniProt P08581); assay: Whole cell ELISA of peptide-displaying phage; assay type: cell-based; conditions: phage isolate; 3T3 cells expressing human cMet vs. non-expressing 3T3 cells
T1 construct: expressed in transfected cells; host or cells: 3T3 cells
T1 sequence (P08581 25-1390): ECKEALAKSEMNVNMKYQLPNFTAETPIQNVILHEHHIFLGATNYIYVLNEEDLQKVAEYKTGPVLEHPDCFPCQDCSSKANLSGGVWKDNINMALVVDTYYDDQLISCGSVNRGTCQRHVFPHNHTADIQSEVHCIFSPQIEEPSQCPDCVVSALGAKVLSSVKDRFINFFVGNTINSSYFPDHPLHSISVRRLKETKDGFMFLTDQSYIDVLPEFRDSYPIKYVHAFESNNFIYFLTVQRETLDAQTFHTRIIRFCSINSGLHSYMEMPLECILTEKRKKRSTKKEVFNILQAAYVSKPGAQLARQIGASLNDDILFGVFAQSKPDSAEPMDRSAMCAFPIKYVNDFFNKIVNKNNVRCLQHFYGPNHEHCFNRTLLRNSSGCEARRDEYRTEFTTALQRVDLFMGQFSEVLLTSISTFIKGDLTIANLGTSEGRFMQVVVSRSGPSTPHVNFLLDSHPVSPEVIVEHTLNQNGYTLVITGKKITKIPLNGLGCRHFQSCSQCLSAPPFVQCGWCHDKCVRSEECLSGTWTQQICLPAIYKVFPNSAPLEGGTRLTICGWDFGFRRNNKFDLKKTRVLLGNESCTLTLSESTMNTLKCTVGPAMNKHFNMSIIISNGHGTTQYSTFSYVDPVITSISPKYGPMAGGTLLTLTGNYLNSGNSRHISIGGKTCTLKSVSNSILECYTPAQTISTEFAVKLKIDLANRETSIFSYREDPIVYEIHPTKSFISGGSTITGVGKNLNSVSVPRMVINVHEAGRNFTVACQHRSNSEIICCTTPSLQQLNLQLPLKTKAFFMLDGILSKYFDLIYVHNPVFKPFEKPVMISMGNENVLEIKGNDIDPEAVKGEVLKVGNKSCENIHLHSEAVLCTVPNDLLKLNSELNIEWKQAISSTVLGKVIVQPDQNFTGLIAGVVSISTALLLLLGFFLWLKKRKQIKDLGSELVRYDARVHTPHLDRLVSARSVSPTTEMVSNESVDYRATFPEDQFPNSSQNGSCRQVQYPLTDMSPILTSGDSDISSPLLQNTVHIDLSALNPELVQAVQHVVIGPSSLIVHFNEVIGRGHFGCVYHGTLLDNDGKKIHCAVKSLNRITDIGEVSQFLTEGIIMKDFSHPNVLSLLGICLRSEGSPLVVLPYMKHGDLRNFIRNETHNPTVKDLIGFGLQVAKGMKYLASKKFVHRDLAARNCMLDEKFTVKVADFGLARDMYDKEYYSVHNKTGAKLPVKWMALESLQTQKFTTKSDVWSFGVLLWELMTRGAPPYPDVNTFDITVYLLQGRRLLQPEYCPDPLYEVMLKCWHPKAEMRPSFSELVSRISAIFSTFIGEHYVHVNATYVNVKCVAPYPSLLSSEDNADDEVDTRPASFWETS
Outline: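 Phage displaying peptides, pre-blocked 1 h at 37 °C, incubated 1 h at RT on glutaraldehyde-fixed (0.1%, 12 min, 37 °C) cMet-overexpressing 3T3 cells (10^5 per well). Binding read out by HRP anti-M13 antibody after PBST washing.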

Chain of cMet-Fc fusion protein (P08581 25-307 limits assumed): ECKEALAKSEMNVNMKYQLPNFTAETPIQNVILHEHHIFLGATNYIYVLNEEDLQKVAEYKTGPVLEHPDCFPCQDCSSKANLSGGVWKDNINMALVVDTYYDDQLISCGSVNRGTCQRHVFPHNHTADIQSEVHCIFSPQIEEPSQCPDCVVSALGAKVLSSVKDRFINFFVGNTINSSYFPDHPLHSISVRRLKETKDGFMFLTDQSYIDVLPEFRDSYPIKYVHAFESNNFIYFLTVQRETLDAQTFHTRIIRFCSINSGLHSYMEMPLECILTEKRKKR
Chain of cMet-Fc fusion protein (P08581 with tags, fused parts or gaps limits assumed): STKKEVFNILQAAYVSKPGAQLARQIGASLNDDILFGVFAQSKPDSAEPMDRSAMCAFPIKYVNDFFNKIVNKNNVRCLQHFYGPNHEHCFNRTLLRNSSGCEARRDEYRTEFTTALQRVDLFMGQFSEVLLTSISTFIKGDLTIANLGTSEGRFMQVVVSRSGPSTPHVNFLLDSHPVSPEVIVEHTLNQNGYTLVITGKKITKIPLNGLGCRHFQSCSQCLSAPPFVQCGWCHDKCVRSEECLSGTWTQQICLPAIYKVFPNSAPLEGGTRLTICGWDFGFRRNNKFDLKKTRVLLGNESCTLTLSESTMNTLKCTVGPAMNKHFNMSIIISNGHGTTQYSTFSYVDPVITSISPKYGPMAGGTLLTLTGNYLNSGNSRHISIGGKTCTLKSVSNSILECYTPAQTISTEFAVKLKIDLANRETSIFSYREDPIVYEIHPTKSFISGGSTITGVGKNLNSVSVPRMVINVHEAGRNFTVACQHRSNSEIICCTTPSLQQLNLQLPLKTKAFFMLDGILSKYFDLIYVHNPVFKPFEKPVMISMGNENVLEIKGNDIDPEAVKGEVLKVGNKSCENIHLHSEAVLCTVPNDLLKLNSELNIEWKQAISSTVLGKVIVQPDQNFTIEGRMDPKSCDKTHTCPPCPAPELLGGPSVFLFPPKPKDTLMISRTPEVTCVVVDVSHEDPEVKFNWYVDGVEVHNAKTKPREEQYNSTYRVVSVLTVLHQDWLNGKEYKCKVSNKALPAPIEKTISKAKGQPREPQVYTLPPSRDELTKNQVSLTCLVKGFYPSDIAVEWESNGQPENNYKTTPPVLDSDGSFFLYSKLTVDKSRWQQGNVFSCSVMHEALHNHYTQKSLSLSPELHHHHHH

| Protein ELISA [1] [fold over background] | WC ELISA [2] [fold over background] | Compound |
| --- | --- | --- |
| 19.5 | 1.23 | AGPWKCTGPPTFSCIQFGT (Synthetically generated cMet-binding peptide sequence) [SEQ ID NO: 090] |
| 3.5 | 1.37 | AGDHYCWEEWWFCWDSGT (Synthetically generated cMet-binding peptide sequence) [SEQ ID NO: 021] |
| 3.9 | 1.13 | AGWFECEFGFWGCNWLGT (Synthetically generated cMet-binding peptide sequence) [SEQ ID NO: 018] |
| 3.9 | 1.33 | AGWSDCLGPPQFTCVHWGT (Synthetically generated cMet-binding peptide sequence) [SEQ ID NO: 083] |
| 3.1 | 1.23 | AGHFECPKHQYMCDMPGT (Synthetically generated cMet-binding peptide sequence) [SEQ ID NO: 042] |
| 15.9 | 1.17 | AGDWICHGPPMFECEWVGT (Synthetically generated cMet-binding peptide sequence) [SEQ ID NO: 058] |
| 13.4 | 1.37 | GDASWCDENSPAAWFYCELWDP (Synthetically generated cMet-binding peptide sequence) [SEQ ID NO: 394] |
| 3.0 | 1.37 | AQWNWDMGFMWTTDSAQVQPSM (Synthetically generated cMet-binding peptide sequence) [SEQ ID NO: 489] |
| 3.0 | 1.37 | AGIWFCNNEEKSCWAYGT (Synthetically generated cMet-binding peptide sequence) [SEQ ID NO: 040] |
| 4.0 | 1.30 | AGWGWCSGPPMFMCTEYGT (Synthetically generated cMet-binding peptide sequence) [SEQ ID NO: 099] |
| 7.0 | 1.37 | AQNAVVPPPMLWSIYWDYGREG (Synthetically generated cMet-binding peptide sequence) [SEQ ID NO: 457] |
| 8.0 | 1.47 | CC(=O)N[C@@H](C)C(=O)NCC(=O)NCC(=O)N[C@@H](Cc1c[nH]c2ccccc12)C(=O)N[C@@H](CCC(=O)O)C(=O)N[C@H]1CSSC[C@@H](C(=O)NCC(=O)N[C@@H](Cc2ccc(O)cc2)C(=O)N[C@@H](Cc2ccc(O)cc2)C(=O)NCC(=O)N[C@H](C(=O)NCC(=O)NCC(=O)NCC(=O)N[C@@H](CCCCNC(=O)c2ccc3c(c2)C(=O)OC32c3ccc(O)cc3Oc3cc(O)ccc32)C(N)=O)[C@@H](C)O)NC(=O)[C@H](CCC(N)=O)NC(=O)[C@H](Cc2ccccc2)NC(=O)[C@H](Cc2c[nH]c3ccccc23)NC(=O)[C@@H]2CCCN2C(=O)[C@@H]2CCCN2C(=O)CNC(=O)[C@H]([C@@H](C)O)NC1=O [SEQ ID NO: 067] |
| 9.0 | 1.30 | AGTWHCAGPPWFTCYMDGT (Synthetically generated cMet-binding peptide sequence) [SEQ ID NO: 069] |
| 4.7 | 1.40 | CC[C@H](C)[C@H](NC(=O)[C@H](Cc1c[nH]c2ccccc12)NC(=O)[C@H](CC(N)=O)NC(=O)CNC(=O)[C@H](C)NC(C)=O)C(=O)N[C@H]1CSSC[C@@H](C(=O)N[C@@H](Cc2c[nH]c3ccccc23)C(=O)N[C@@H](Cc2ccc(O)cc2)C(=O)N[C@@H](Cc2c[nH]cn2)C(=O)NCC(=O)N[C@H](C(=O)NCC(=O)NCC(=O)NCC(=O)N[C@@H](CCCCNC(=O)c2ccc3c(c2)C(=O)OC32c3ccc(O)cc3Oc3cc(O)ccc32)C(N)=O)[C@@H](C)O)NC(=O)CNC(=O)[C@H](Cc2ccccc2)NC(=O)[C@H](CO)NC(=O)[C@@H]2CCCN2C(=O)[C@@H]2CCCN2C(=O)CNC(=O)[C@H]([C@@H](C)O)NC1=O [SEQ ID NO: 078] |
| 3.2 | 1.30 | AGQAVCEWGPFWCQMQGT (Synthetically generated cMet-binding peptide sequence) [SEQ ID NO: 031] |
| 3.4 | 1.30 | GDASMCYDGLALRWDQCWPHDP (Synthetically generated cMet-binding peptide sequence) [SEQ ID NO: 404] |

| Protein ELISA [1] [fold over background] | WC ELISA [2] [fold over background] | Compound |
| --- | --- | --- |
| 3.7 | 1.37 | AGVWICRVWDDECFFQGT (Synthetically generated cMet-binding peptide sequence) [SEQ ID NO: 020] |
| 4.7 | 1.30 | GDGFLCRWENGWCEFWDP (Synthetically generated cMet-binding peptide sequence) [SEQ ID NO: 047] |
| 3.9 | 1.43 | GSGMGCHQVNISTGDCAEDAP (Synthetically generated cMet-binding peptide sequence) [SEQ ID NO: 381] |
| 5.7 | 1.20 | AGVNSCLGPPTFECYQMGT (Synthetically generated cMet-binding peptide sequence) [SEQ ID NO: 076] |
| 6.1 | 1.30 | GDYRMCQISDMWGNYECSSDDP (Synthetically generated cMet-binding peptide sequence) [SEQ ID NO: 400] |
| 7.0 | 1.27 | GSTKVCHEKWNQLFCHNQAP (Synthetically generated cMet-binding peptide sequence) [SEQ ID NO: 368] |
| 11.3 | 1.30 | CSCC[C@H](NC(=O)CNC(=O)[C@@H]1CCCN1C(=O)[C@H](CO)NC(=O)[C@H](CO)NC(=O)[C@H](Cc1c[nH]c2ccccc12)NC(=O)[C@H](CCCNC(=N)N)NC(=O)[C@H](CCC(N)=O)NC(=O)[C@H](C)NC(C)=O)C(=O)N[C@@H](CO)C(=O)N[C@@H](CCC(N)=O)C(=O)N[C@@H](CO)C(=O)N[C@@H](Cc1ccccc1)C(=O)N[C@H](C(=O)N[C@@H](CC(C)C)C(=O)N[C@@H](CCC(=O)O)C(=O)N[C@@H](Cc1c[nH]c2ccccc12)C(=O)N[C@@H](CCCCN)C(=O)N[C@@H](Cc1c[nH]c2ccccc12)C(=O)N[C@@H](CC(N)=O)C(=O)N[C@@H](CC(=O)O)C(=O)N[C@@H](CC(N)=O)C(=O)NCC(=O)NCC(=O)NCC(=O)N[C@@H](CCCCNC(=O)c1ccc2c(c1)C(=O)OC21c2ccc(O)cc2Oc2cc(O)ccc21)C(N)=O)C(C)C [SEQ ID NO: 453] |
| 3.0 | 1.37 | GSDMNCTVLAQDQIFCFREAP (Synthetically generated cMet-binding peptide sequence) [SEQ ID NO: 386] |
| 3.5 | 1.23 | AGMDFCEGFWFLCIGNAT (Synthetically generated cMet-binding peptide sequence) [SEQ ID NO: 035] |
| 3.0 | 1.17 | AQVGESLDDGWTFFSDKWFDFF (Synthetically generated cMet-binding peptide sequence) [SEQ ID NO: 485] |
| 4.8 | 1.27 | GSELFCFYHHQGYEGCDVLAP (Synthetically generated cMet-binding peptide sequence) [SEQ ID NO: 385] |
| 3.2 | 1.33 | GSEYSCRTSRCIFSAP (Synthetically generated cMet-binding peptide sequence) [SEQ ID NO: 006] |
| 10.7 | 1.27 | AGYWSCAGPPMFMCTWQGT (Synthetically generated cMet-binding peptide sequence) [SEQ ID NO: 079] |
| 3.2 | 1.27 | CC(=O)N[C@@H](C)C(=O)NCC(=O)N[C@@H](Cc1c[nH]cn1)C(=O)N[C@@H](C)C(=O)N[C@@H](Cc1c[nH]c2ccccc12)C(=O)N[C@H]1CSSC[C@@H](C(=O)N[C@@H](Cc2c[nH]c3ccccc23)C(=O)N2CCC[C@H]2C(=O)N2CCC[C@H]2C(=O)NCC(=O)N[C@H](C(=O)NCC(=O)NCC(=O)NCC(=O)N[C@@H](CCCCNC(=O)c2ccc3c(c2)C(=O)OC32c3ccc(O)cc3Oc3cc(O)ccc32)C(N)=O)[C@@H](C)O)NC(=O)[C@H](CCC(=O)O)NC(=O)[C@H](Cc2ccccc2)NC(=O)[C@H](CCCNC(=N)N)NC(=O)[C@@H]2CCCN2C(=O)[C@@H]2CCCN2C(=O)CNC(=O)[C@H](CO)NC1=O [SEQ ID NO: 061] |
| 3.0 | 1.37 | GSFNICPYQWCTLWAP (Synthetically generated cMet-binding peptide sequence) [SEQ ID NO: 010] |
